Data: publication PMC12102759 (2025)

B1: SH3BP2 peptide 408-423 (SH3 domain-binding protein 2), 16-mer library wild type / TNKS ANK (TNKS 12 ANK repeats, residues 174-649) (parent complex)
chain 1: PQLPHLQRSPPDGQSF
chain 2: TGVPAVSGALRELLEACRNGDVSRVKRLVDAANVNAKDMAGRKSSPLHFAAGFGRKDVVEHLLQMGANVHARDDGGLIPLHNACSFGHAEVVSLLLCQGADPNARDNWNYTPLHEAAIKGKIDVCIVLLQHGADPNIRNTDGKSALDLADPSAKAVLTGEYKKDELLEAARSGNEEKLMALLTPLNVNCHASDGRKSTPLHLAAGYNRVRIVQLLLQHGADVHAKDKGGLVPLHNACSYGHYEVTELLLKHGACVNAMDLWQFTPLHEAASKNRVEVCSLLLSHGADPTLVNCHGKSAVDMAPTPELRERLTYEFKGHSLLQAAREADLAKVKKTLALEIINFKQPQSHETALHCAVASLHPKRKQVTELLLRKGANVNEKNKDFMTPLHVAAERAHNDVMEVLHKHGAKMNALDTLGQTALHRAALAGHLQTCRLLLSYGSDPSIISLQGFTAAQMGNEAVQQILSESTPIRTSD

Variants of: B1
Experiment: proteomic peptide phage display deep mutational scan (ProP-PD DMS): M13 P8 16-mer library selected against immobilised GST-tagged bait for four days (rounds), NGS of the eluted pools per day and pseudo-replica; bait immobilised on MaxiSorp plates (10 µg), library pre-cleared on GST, 2 h binding at 4 °C, five washes; one round per day, days 1-4; value from days 2 and 3

Point of comparison: chain 1 Q7V, screen value 0.00169 average fractional NGS count over selection days 2 and 3 (reads of this peptide / all reads for the bait, averaged over …. Against it:
- chain 1 P11A — lower, 0.000639 average fractional NGS count over selection days 2 and 3 (reads of this peptide / all reads for the bait, averaged over …
- chain 1 P11G — higher, 0.0132 average fractional NGS count over selection days 2 and 3 (reads of this peptide / all reads for the bait, averaged over …
- chain 1 S9M — higher, 0.00474 average fractional NGS count over selection days 2 and 3 (reads of this peptide / all reads for the bait, averaged over …
- chain 1 S9L — higher, 0.00406 average fractional NGS count over selection days 2 and 3 (reads of this peptide / all reads for the bait, averaged over …
- chain 1 S9N — lower, 0.000282 average fractional NGS count over selection days 2 and 3 (reads of this peptide / all reads for the bait, averaged over …
- chain 1 S9Y — lower, 0.000793 average fractional NGS count over selection days 2 and 3 (reads of this peptide / all reads for the bait, averaged over …
- chain 1 S9P — lower, 0.000122 average fractional NGS count over selection days 2 and 3 (reads of this peptide / all reads for the bait, averaged over …
- chain 1 S9F — lower, 0.00032 average fractional NGS count over selection days 2 and 3 (reads of this peptide / all reads for the bait, averaged over …
- chain 1 S9Q — higher, 0.00451 average fractional NGS count over selection days 2 and 3 (reads of this peptide / all reads for the bait, averaged over …
- chain 1 S9A — lower, 0.000813 average fractional NGS count over selection days 2 and 3 (reads of this peptide / all reads for the bait, averaged over …
- chain 1 S9T — lower, 0.00132 average fractional NGS count over selection days 2 and 3 (reads of this peptide / all reads for the bait, averaged over …
- chain 1 S9K — lower, 0.000447 average fractional NGS count over selection days 2 and 3 (reads of this peptide / all reads for the bait, averaged over …
- chain 1 S9V — higher, 0.0149 average fractional NGS count over selection days 2 and 3 (reads of this peptide / all reads for the bait, averaged over …
- chain 1 S9E — lower, 0.00024 average fractional NGS count over selection days 2 and 3 (reads of this peptide / all reads for the bait, averaged over …
- chain 1 S9W — lower, 0.000206 average fractional NGS count over selection days 2 and 3 (reads of this peptide / all reads for the bait, averaged over …
- chain 1 L3A — lower, 0.000216 average fractional NGS count over selection days 2 and 3 (reads of this peptide / all reads for the bait, averaged over …
- chain 1 L3K — lower, 0.000138 average fractional NGS count over selection days 2 and 3 (reads of this peptide / all reads for the bait, averaged over …
- chain 1 L3P — lower, 0.000341 average fractional NGS count over selection days 2 and 3 (reads of this peptide / all reads for the bait, averaged over …
- chain 1 L3V — lower, 0.000203 average fractional NGS count over selection days 2 and 3 (reads of this peptide / all reads for the bait, averaged over …
- chain 1 L3I — lower, 0.000205 average fractional NGS count over selection days 2 and 3 (reads of this peptide / all reads for the bait, averaged over …
- chain 1 L3H — lower, 0.000462 average fractional NGS count over selection days 2 and 3 (reads of this peptide / all reads for the bait, averaged over …
- chain 1 L3S — lower, 0.000201 average fractional NGS count over selection days 2 and 3 (reads of this peptide / all reads for the bait, averaged over …
- chain 1 L3N — lower, 0.000433 average fractional NGS count over selection days 2 and 3 (reads of this peptide / all reads for the bait, averaged over …
- chain 1 L3E — lower, 0.00036 average fractional NGS count over selection days 2 and 3 (reads of this peptide / all reads for the bait, averaged over …
- chain 1 L3M — lower, 0.000961 average fractional NGS count over selection days 2 and 3 (reads of this peptide / all reads for the bait, averaged over …
- chain 1 L3R — lower, 0.000308 average fractional NGS count over selection days 2 and 3 (reads of this peptide / all reads for the bait, averaged over …
- chain 1 H5T — lower, 0.000644 average fractional NGS count over selection days 2 and 3 (reads of this peptide / all reads for the bait, averaged over …
- chain 1 H5P — lower, 0.000222 average fractional NGS count over selection days 2 and 3 (reads of this peptide / all reads for the bait, averaged over …
- chain 1 H5S — lower, 0.000337 average fractional NGS count over selection days 2 and 3 (reads of this peptide / all reads for the bait, averaged over …
- chain 1 H5Y — lower, 0.000149 average fractional NGS count over selection days 2 and 3 (reads of this peptide / all reads for the bait, averaged over …
- chain 1 H5G — lower, 0.000153 average fractional NGS count over selection days 2 and 3 (reads of this peptide / all reads for the bait, averaged over …
- chain 1 H5R — lower, 0.00137 average fractional NGS count over selection days 2 and 3 (reads of this peptide / all reads for the bait, averaged over …
- chain 1 H5I — lower, 0.000472 average fractional NGS count over selection days 2 and 3 (reads of this peptide / all reads for the bait, averaged over …
- chain 1 H5V — lower, 0.000333 average fractional NGS count over selection days 2 and 3 (reads of this peptide / all reads for the bait, averaged over …
- chain 1 Q7F — higher, 0.00823 average fractional NGS count over selection days 2 and 3 (reads of this peptide / all reads for the bait, averaged over …
- chain 1 Q7L — higher, 0.00476 average fractional NGS count over selection days 2 and 3 (reads of this peptide / all reads for the bait, averaged over …
- chain 1 Q7K — lower, 0.000537 average fractional NGS count over selection days 2 and 3 (reads of this peptide / all reads for the bait, averaged over …
- chain 1 Q7W — lower, 0.000561 average fractional NGS count over selection days 2 and 3 (reads of this peptide / all reads for the bait, averaged over …
- chain 1 Q7G — lower, 0.00109 average fractional NGS count over selection days 2 and 3 (reads of this peptide / all reads for the bait, averaged over …
- chain 1 Q7T — lower, 0.000465 average fractional NGS count over selection days 2 and 3 (reads of this peptide / all reads for the bait, averaged over …
- chain 1 Q7M — lower, 0.00158 average fractional NGS count over selection days 2 and 3 (reads of this peptide / all reads for the bait, averaged over …
- chain 1 Q7H — lower, 0.00147 average fractional NGS count over selection days 2 and 3 (reads of this peptide / all reads for the bait, averaged over …
- chain 1 Q7Y — lower, 0.00125 average fractional NGS count over selection days 2 and 3 (reads of this peptide / all reads for the bait, averaged over …
- chain 1 Q7E — lower, 0.000295 average fractional NGS count over selection days 2 and 3 (reads of this peptide / all reads for the bait, averaged over …
- chain 1 Q7I — lower, 0.000144 average fractional NGS count over selection days 2 and 3 (reads of this peptide / all reads for the bait, averaged over …
- chain 1 Q7S — lower, 0.000276 average fractional NGS count over selection days 2 and 3 (reads of this peptide / all reads for the bait, averaged over …
- chain 1 Q7D — higher, 0.00248 average fractional NGS count over selection days 2 and 3 (reads of this peptide / all reads for the bait, averaged over …
- chain 1 P10K — lower, 0.00107 average fractional NGS count over selection days 2 and 3 (reads of this peptide / all reads for the bait, averaged over …
- chain 1 P10W — lower, 0.000201 average fractional NGS count over selection days 2 and 3 (reads of this peptide / all reads for the bait, averaged over …
- chain 1 P10F — lower, 0.000203 average fractional NGS count over selection days 2 and 3 (reads of this peptide / all reads for the bait, averaged over …
- chain 1 P10T — lower, 0.00166 average fractional NGS count over selection days 2 and 3 (reads of this peptide / all reads for the bait, averaged over …
- chain 1 P10Q — lower, 0.00105 average fractional NGS count over selection days 2 and 3 (reads of this peptide / all reads for the bait, averaged over …
- chain 1 P10G — higher, 0.00637 average fractional NGS count over selection days 2 and 3 (reads of this peptide / all reads for the bait, averaged over …
- chain 1 P10S — lower, 0.000405 average fractional NGS count over selection days 2 and 3 (reads of this peptide / all reads for the bait, averaged over …
- chain 1 P10I — higher, 0.00249 average fractional NGS count over selection days 2 and 3 (reads of this peptide / all reads for the bait, averaged over …
- chain 1 P10N — higher, 0.00386 average fractional NGS count over selection days 2 and 3 (reads of this peptide / all reads for the bait, averaged over …
- chain 1 P10L — lower, 0.00106 average fractional NGS count over selection days 2 and 3 (reads of this peptide / all reads for the bait, averaged over …
- chain 1 P10V — lower, 0.00118 average fractional NGS count over selection days 2 and 3 (reads of this peptide / all reads for the bait, averaged over …
- chain 1 P10Y — lower, 0.000858 average fractional NGS count over selection days 2 and 3 (reads of this peptide / all reads for the bait, averaged over …
- chain 1 P10H — higher, 0.0139 average fractional NGS count over selection days 2 and 3 (reads of this peptide / all reads for the bait, averaged over …
- chain 1 D12E — lower, 0.00128 average fractional NGS count over selection days 2 and 3 (reads of this peptide / all reads for the bait, averaged over …
- chain 1 D12S — lower, 0.000143 average fractional NGS count over selection days 2 and 3 (reads of this peptide / all reads for the bait, averaged over …
- chain 1 D12Q — lower, 0.000387 average fractional NGS count over selection days 2 and 3 (reads of this peptide / all reads for the bait, averaged over …
- chain 1 D12A — lower, 0.000288 average fractional NGS count over selection days 2 and 3 (reads of this peptide / all reads for the bait, averaged over …
- chain 1 D12L — lower, 0.000574 average fractional NGS count over selection days 2 and 3 (reads of this peptide / all reads for the bait, averaged over …
- chain 1 D12M — lower, 0.000556 average fractional NGS count over selection days 2 and 3 (reads of this peptide / all reads for the bait, averaged over …
- chain 1 D12I — lower, 0.000718 average fractional NGS count over selection days 2 and 3 (reads of this peptide / all reads for the bait, averaged over …
- chain 1 L6W — lower, 0.000131 average fractional NGS count over selection days 2 and 3 (reads of this peptide / all reads for the bait, averaged over …
- chain 1 L6N — lower, 0.000459 average fractional NGS count over selection days 2 and 3 (reads of this peptide / all reads for the bait, averaged over …
- chain 1 L6H — lower, 0.000142 average fractional NGS count over selection days 2 and 3 (reads of this peptide / all reads for the bait, averaged over …
- chain 1 L6Q — lower, 0.000145 average fractional NGS count over selection days 2 and 3 (reads of this peptide / all reads for the bait, averaged over …
- chain 1 L6P — lower, 0.000739 average fractional NGS count over selection days 2 and 3 (reads of this peptide / all reads for the bait, averaged over …
- chain 1 L6E — higher, 0.00197 average fractional NGS count over selection days 2 and 3 (reads of this peptide / all reads for the bait, averaged over …
- chain 1 L6A — lower, 0.00118 average fractional NGS count over selection days 2 and 3 (reads of this peptide / all reads for the bait, averaged over …
